Kd data for four substances are collected here from PMC6857588.

This assay concerns the target filamentous actin (F-actin) (not stated (human platelet or rabbit muscle actin)) (UniProt P68135). In words: co-sedimentation; 0.5 µM NMY-2S1 incubated with different amounts of actin, 150,000 g for 1.5 h at room temperature; percent of NMY-2 S1 in the pellet fitted with a one-site specific binding model.
“NMY-2(R252A)S1 (NMY-2 S1 fragment R252A bound to MLC-4 and MLC-5) (from UniProt G5EBY3 1-874; Q09510 1-172; Q9XVI9 1-142) (complex)”: the Kd worked out at 2460 nM.
Next, “NMY-2(S250A)S1 (NMY-2 S1 fragment S250A bound to MLC-4 and MLC-5) (from UniProt G5EBY3 1-874; Q09510 1-172; Q9XVI9 1-142) (complex)”: 660 nM.
Next, “NMY-2(S251A)S1 (NMY-2 S1 fragment S251A bound to MLC-4 and MLC-5) (from UniProt G5EBY3 1-874; Q09510 1-172; Q9XVI9 1-142) (complex)”: 62 nM; “wild-type NMY-2S1 (NMY-2 S1 fragment bound to MLC-4 and MLC-5) (from UniProt G5EBY3 1-874; Q09510 1-172; Q9XVI9 1-142) (complex)”: 660 nM.

Usually Kd stands for the free concentration of one partner at which half of the binding sites on the other are occupied at equilibrium, for simple one-to-one binding.
